# Measured values as given in patent US20170183404A1 (VIB VZW, published 2017).
# Changes are numbered by the printed parent chain.
# B1: XA8727 (VHH)
# VHH: QVQLVESGGGLVQAGGSLRLSCAASGFTFDDYAIAWFRQAPGKEREGVSCISSSDGSTYYADSVKGRFTISNDNAKNTVYLQMNSLKPEDTAVYYCAADLSRSCGRGYRYLEVWGQGTQVTVSS
# notes: Tested as periplasmic extract; also called 599D2; Profile III VHH
# B2: XA8643 (VHH)
# VHH: QVQLVESGGGLVRPGGSLRLSCVDSERTSYPMGWFRRAPGKEREFVASITWSGIDPTYADSVADRFTISRDVANNTLYLQMNSLKHEDTAVYYCAARAPVGQSSSPYDYDYWGQGTQVTVSS
# notes: Tested as periplasmic extract; also called 598G11; X8643
# B3: XA8639 (VHH)
# VHH: B2 VHH with I68T
# notes: also called 598A7; Nb39
# B4: XA8641 (VHH)
# VHH: B2 VHH with E26G
# notes: Tested as periplasmic extract; also called 598A2; Profile I VHH
# B5: XA8635 (VHH)
# VHH: QVQLVESGGGLVQAGGSLRLSCAASGSISSISTMGWYRQAPGNERELVAAITSGGSTNYADSVKGRFTISRDNAKNTVYLQMNSLKPEDTAVYYCNFKYYSGSYFYKSEYDYWGQGTQVTVSS
# notes: Tested as periplasmic extract and as purified protein; also called 601H10; monovalent XA8635
# Target: T1, truncDelta mMor1 reconstituted in liposomes (mouse, UniProt P42866 52-358)
# T1 construct: The assayed protein lacks the N-terminal part before the TEV site and the C-terminal part after the 3C site; It was purified, doped with Dmt1-Dalda and reconstituted in DOPC/CHS/lipid A vesicles; also called truncDelta mMor1 liposome; recombinant mMOR1 reconstituted in liposomes
# T1 sequence (P42866 52-358, tags or fused parts left off): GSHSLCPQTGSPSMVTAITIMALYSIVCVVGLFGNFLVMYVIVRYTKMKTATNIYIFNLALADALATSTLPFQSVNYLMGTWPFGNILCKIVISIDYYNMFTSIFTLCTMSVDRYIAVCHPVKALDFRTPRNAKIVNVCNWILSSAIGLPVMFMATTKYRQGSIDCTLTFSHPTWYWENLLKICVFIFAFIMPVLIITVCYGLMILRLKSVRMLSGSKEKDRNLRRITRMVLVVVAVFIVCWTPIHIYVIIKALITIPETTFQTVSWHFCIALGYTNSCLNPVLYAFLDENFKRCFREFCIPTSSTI
# Assay: ELISA (OD405), five-fold diluted periplasm, 10 µM Dmt1-Dalda; reference: mock liposomes
# Procedure: DNPP (Sigma, cat nr 71768) was used to develop the colorimetric signal. Absorbance was measured at OD405 nm and results are depicted in FIG. 6. […] All VHHs tested confirm specific binding to truncDelta mMor1 reconstituted in liposomes. As truncDelta mMor1 is truncated at its N- and C-terminus, most likely these VHHs interact with extracellular or intracellular Mor1 conformational epitopes.
row,absorbance on truncDelta mMor1 liposomes relative to mock liposomes,Binder
1,≥ 3 fold,B1
2,≥ 3 fold,B2
3,≥ 3 fold,B3
4,≥ 3 fold,B4
5,≥ 3 fold,B5

# Target: T2, wild-type human Mor1 (human mu-type opioid receptor) (human, UniProt P35372 1-400)
# T2 construct: Used as CHO membranes (Perkin Elmer ES-542-M400UA) in the radioligand assay and on transfected CHO cells in flow cytometry; also called WT hMor1/CHO; hMor1/CHO
# T2 sequence (P35372 whole entry): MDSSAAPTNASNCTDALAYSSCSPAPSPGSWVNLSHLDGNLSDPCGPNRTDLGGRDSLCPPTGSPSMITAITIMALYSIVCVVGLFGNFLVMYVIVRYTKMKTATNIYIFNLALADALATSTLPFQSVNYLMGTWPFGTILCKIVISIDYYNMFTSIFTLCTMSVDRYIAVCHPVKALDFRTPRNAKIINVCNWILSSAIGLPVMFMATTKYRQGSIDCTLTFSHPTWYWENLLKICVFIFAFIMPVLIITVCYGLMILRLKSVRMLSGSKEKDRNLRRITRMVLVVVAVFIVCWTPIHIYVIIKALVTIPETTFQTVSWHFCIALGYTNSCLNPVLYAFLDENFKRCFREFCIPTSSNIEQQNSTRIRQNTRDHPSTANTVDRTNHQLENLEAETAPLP
# Assay: displacement of 1 nM [3H]-diprenorphine from WT hMor1/CHO membranes by a concentration range of XA8635
# Procedure: The mixture was incubated for 1 hour at RT and after washing, filter bound radioligand was measured.
row,binding result,Binder
1,binds,B5
